Columns and labels:
[1] = Intact mass spectrometry (IMS); type: physicochemical; details: for intact mass Identity confirmed / intact mass Peak intensity post stress: 21 days
Protocol: Protein integrity was analyzed by LC-MS. […] Reversed phase (RP) chromatography was done using a PLRP-S 1000A 5 μm, 50×2.1 mm (Agilent) with a guard column PLRP-S 300A 5 μm, 3×5 mm (Agilent) at 200 μL/min and 80° C. column temperature. Eluents were buffer A containing LC water and 0.1% formic acid as well as buffer B containing 90% acetonitrile, 10% LC water and 0.1% formic acid. 1 μg of protein was injected onto the column and eluted using linear gradient from 0 to 17 minutes with increasing acetonitrile concentration. Data was analyzed using MassHunter Bioconfirm B.06 (Agilent). Molecular masses were calculated based on the amino acid sequences of the proteins using GPMAW software version 10 (Lighthouse data).

[2] = Capillary isoelectric focusing (cIEF); type: physicochemical
Protocol: Charge heterogeneity of the antibody samples was determined by capillary isoelectric focusing (cIEF) using a Maurice C device (Protein Simple). The samples were prepared by the cIEF protocol given by the manufacturer with an ampholyte mix 3-10 (Protein Simple) and peptide pl markers of 5.85 and 9.0 (Protein Simple). cIEF runs were analyzed using Compass Software v2.1.0 (Protein Simple).

[3] = target: T1, FGFR1c and co-receptor beta-Klotho (KLB) (Homo sapiens, UniProt P11362+Q86Z14); test: Luciferase reporter gene assay (iLite FGF21 Assay Ready Cells), FGF21-like signaling; type: cell-based
T1 construct: host or cells: iLite FGF21 Assay Ready Cells (HEK293)

[4] = In vivo PK in cynomolgus monkeys, single intravenous dose; set-up: species or system Cynomolgus monkey (Macaca fascicularis); details: Macaca fascicularis, 3.0 mg/kg single IV, plasma
Protocol: Naive cynomolgus monkeys received a single intravenous dose of mAb according to the following table:
In all investigations, the animals were evaluated twice daily for post-dose mortality/moribundity and cage side clinical observations were carried out after each study blood collection time. Studies were Non-GLP, nevertheless, these studies have been conducted in a GLP compliant facility using practices detailed in Standard Operating Procedures consistent with the principles of GLP (Test facility: Sanofi and Charles River Laboratories). Plasma concentrations and pharmacokinetic parameters of the tested antibodies were investigated after single intravenous administration.

T1 sequence (Q86Z14 53-1044 limits assumed): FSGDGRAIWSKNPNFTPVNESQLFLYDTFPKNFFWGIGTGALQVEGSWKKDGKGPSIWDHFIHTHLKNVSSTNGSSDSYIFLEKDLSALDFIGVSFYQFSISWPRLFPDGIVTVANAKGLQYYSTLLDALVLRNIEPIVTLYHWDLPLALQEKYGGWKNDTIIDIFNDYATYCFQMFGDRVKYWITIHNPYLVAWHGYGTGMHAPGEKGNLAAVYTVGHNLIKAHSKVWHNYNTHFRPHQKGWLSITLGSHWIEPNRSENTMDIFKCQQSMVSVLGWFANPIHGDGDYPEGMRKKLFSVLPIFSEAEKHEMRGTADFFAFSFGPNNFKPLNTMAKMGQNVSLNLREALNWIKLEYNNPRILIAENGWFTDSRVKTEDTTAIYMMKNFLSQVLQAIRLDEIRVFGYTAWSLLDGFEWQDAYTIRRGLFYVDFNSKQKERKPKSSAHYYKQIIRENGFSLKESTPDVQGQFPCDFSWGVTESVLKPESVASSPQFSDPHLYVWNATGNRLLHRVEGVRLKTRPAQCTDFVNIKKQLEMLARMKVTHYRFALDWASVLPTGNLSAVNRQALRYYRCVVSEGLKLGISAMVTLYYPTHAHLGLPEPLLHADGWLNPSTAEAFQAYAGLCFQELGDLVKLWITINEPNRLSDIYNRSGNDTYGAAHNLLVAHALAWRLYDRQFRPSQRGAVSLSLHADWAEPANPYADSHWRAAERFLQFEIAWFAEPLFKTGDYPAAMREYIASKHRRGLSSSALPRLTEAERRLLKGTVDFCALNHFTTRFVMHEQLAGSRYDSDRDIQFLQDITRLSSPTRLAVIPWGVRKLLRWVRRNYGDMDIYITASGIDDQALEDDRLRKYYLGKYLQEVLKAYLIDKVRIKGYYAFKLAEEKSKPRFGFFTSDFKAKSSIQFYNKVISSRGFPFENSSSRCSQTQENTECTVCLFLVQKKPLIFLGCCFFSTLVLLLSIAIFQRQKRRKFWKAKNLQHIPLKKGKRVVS
T1 sequence (P11362 22-820 isoform P11362-2 limits assumed): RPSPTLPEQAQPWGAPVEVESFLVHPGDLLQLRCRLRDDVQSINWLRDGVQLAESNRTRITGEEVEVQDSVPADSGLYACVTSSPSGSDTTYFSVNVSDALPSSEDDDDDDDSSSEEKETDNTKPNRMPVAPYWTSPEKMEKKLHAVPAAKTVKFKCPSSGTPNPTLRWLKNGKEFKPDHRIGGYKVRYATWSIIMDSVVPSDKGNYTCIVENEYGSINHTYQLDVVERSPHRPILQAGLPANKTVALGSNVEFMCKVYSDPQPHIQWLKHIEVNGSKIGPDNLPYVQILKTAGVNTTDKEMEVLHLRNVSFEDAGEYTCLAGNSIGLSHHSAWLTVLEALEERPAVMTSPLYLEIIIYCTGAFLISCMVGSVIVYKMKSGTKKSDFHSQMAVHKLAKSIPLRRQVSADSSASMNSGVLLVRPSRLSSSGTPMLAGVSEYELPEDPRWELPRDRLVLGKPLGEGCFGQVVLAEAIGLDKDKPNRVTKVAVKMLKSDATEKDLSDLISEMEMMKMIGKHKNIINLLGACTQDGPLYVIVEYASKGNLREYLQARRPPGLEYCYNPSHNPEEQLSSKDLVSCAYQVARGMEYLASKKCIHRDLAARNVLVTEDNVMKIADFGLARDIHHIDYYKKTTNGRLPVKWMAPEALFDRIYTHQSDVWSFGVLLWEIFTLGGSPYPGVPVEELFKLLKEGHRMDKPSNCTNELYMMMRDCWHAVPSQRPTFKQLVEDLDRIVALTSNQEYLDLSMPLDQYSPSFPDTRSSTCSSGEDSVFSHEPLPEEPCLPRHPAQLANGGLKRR

Row | Substance | Identity, correct pairing, intact mass, Identity confirmed [1] | intact mass Identity confirmed ([1]; pH 5, 40° C.) | intact mass Peak intensity post stress ([1]; pH 5, 40° C.) [%] | intact mass Identity confirmed ([1]; pH 6, 40° C.) | intact mass Peak intensity post stress ([1]; pH 6, 40° C.) [%] | intact mass Identity confirmed ([1]; pH 8, 40° C.) | intact mass Peak intensity post stress ([1]; pH 8, 40° C.) [%] | Charge homogeneity cIEF % main peak [2] [%] | Charge homogeneity cIEF Number of peaks [2] | Charge homogeneity cIEF pI [2] | cIEF % Main peak ([2]; pH 5, 40° C., d 21) [%] | cIEF Number of peaks ([2]; pH 5, 40° C., d 21) | cIEF % Main peak ([2]; pH 5, d 0) [%] | cIEF Number of peaks ([2]; pH 5, d 0) | cIEF % Main peak ([2]; pH 6, 40° C., d 21) [%] | cIEF Number of peaks ([2]; pH 6, 40° C., d 21) | cIEF % Main peak ([2]; pH 6, d 0) [%] | cIEF Number of peaks ([2]; pH 6, d 0) | cIEF % Main peak ([2]; pH 8, 40° C., d 21) [%] | cIEF Number of peaks ([2]; pH 8, 40° C., d 21) | also measured
1 | Ab0428: IgG1 NNAS; 16H7 VL (N25S, D49S, D50E, D91E, N93E); 16H7 VH (M34V, I83T, D109E); HC SEQ ID NO: 41, LC SEQ ID NO: 48 | Yes | Yes | 84 | Yes | 87 | Yes | 56 | 20.4 | 8 | 7.3-8.0 | 15 | 8 | 21 | 8 | 21 | 8 | 20 | 8 | 11 | 9 | cIEF % Main peak ([2]; pH 8, d 0): 21%; cIEF Number of peaks ([2]; pH 8, d 0): 9
2 | Ab0430: IgG1 NNAS; 16H7 VL (N25S, D49E, D50E, D91E, N93E); 16H7 VH (M34V, I83T, D109E); HC SEQ ID NO: 43, LC SEQ ID NO: 50 | Yes | Yes | 80 | Yes | 81 | Yes | 54 | 21.7 | 8 | 7.2-7.9 | 21 | 8 | 22 | 9 | 20 | 9 | 22 | 8 | 4.4 | 11 | cIEF % Main peak ([2]; pH 8, d 0): 22%; cIEF Number of peaks ([2]; pH 8, d 0): 9
3 | Ab0351: IgG4 PE; 16H7 VL (N25S, D49E, D50E, D91E, N93E); 16H7 VH (M34V, I83T, D109E); HC SEQ ID NO: 40, LC SEQ ID NO: 47 | Yes | Yes | 90 | Yes | 96 | Yes | 77 | 72.6 | 4 | 6.7 | 59 | 5 | 72 | 4 | 58 | 4 | 73 | 4 | 15 | 5 | cellular activity in the Luciferase gene reporter assay compared to 16H7 [3]: comparable cellular activity; cIEF % Main peak ([2]; pH 8, d 0): 71%; cIEF Number of peaks ([2]; pH 8, d 0): 4
4 | Ab0429: IgG1 NNAS; 16H7 VL (N25S, D49S, D50A, D91E, N93E); 16H7 VH (M34V, I83T, D109E); HC SEQ ID NO: 42, LC SEQ ID NO: 49 | Yes | Yes | 95 | Yes | 83 | Yes | 68 | 21.3 | 9 | 7.5-8.5 | 20 | 9 | 21 | 8 | 23 | 8 | 21 | 9 | 9.7 | 10 | t½ [4]: 183 h; cIEF % Main peak ([2]; pH 8, d 0): 21%; cIEF Number of peaks ([2]; pH 8, d 0): 8
5 | Ab0331: IgG4 PE; 16H7 VL (N25S, D49S, D50E, D91E, N93E); 16H7 VH (M34V, I83T, D109E); HC SEQ ID NO: 38, LC SEQ ID NO: 45 | Yes | Yes | 84 | Yes | 97 | Yes | 75 | 73 | 5 | 6.9 | 59 | 5 | 73 | 5 | 57 | 4 | 73 | 5 | 14 | 6 | cellular activity in the Luciferase gene reporter assay compared to 16H7 [3]: comparable cellular activity; t½ [4]: 259 h; cIEF % Main peak ([2]; pH 8, d 0): 72%; cIEF Number of peaks ([2]; pH 8, d 0): 5
